Results published in patent US20230121248A1.

Legend:
Test in all cases: cell-based or functional assay
[1] = target: anti-CD19 chimeric antigen receptor on anti-CD19 CAR-T cells
[2] = target: mock CAR-T cells (CAR-T not able to recognize CD19)
[3] = target: native JAM-A on CAL27 cells (UniProt Q9Y624)
Sequence of UniProt Q9Y624 (Q9Y624 28-299 limits assumed): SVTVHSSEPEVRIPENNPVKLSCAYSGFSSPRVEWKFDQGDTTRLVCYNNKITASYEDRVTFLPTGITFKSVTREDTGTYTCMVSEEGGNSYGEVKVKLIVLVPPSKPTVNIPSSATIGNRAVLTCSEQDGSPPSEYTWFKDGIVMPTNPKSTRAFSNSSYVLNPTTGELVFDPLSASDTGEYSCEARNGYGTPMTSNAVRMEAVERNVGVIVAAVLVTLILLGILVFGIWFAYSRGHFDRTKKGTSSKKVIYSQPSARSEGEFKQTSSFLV

proliferation of CAL27 cells (ATPlite, ratio to untreated control), 1 uM soluble JAM-A [3] | Substance | proliferation (ATP fold of control) of A549 cells 72 h after the anti-CD19 CAR-T killing assay, 1 uM CM19XA [1] | proliferation (ATP fold of control) of CAL27 cells 72 h after the anti-CD19 CAR-T killing assay, 1 uM CM19XA [1] | proliferation (ATP fold of control) of A549 cells 72 h after the mock CAR-T killing assay, 1 uM CM19XA [2] | proliferation (ATP fold of control) of CAL27 cells 72 h after the mock CAR-T killing assay, 1 uM CM19XA [2]
 | CM19XA (CD19-GS linker-JAM-A-pHLIP fusion protein with N-terminal 6xHis tag) | 0.74 fold | 0.72 fold | 1.03 fold | 1.01 fold
1.24 | soluble JAM-A protein (extracellular domain of JAM-A fused with MBP) (from UniProt Q9Y624 28-238) |  |  |  | 
